This assay concerns the target Flag-tagged phosphor-mutant (AA: S1310A, S1379A) full-length human Tet3 (lentiviral) (human) (UniProt O43151). The assay is described as follows: co-IP; Tet3 KO mouse ESCs stably expressing Flag-tagged Wt or AA human Tet3; lysate in TBST buffer (50 mM Tris-HCl pH 7.4, 150 mM NaCl, 1 mM EDTA, 1% Triton X-100); IP overnight with anti-Flag M2 affinity gel or mouse IgG agarose, washed four times with TBST; blot for FLAG and H2A.Z.

“histone variant H2A.Z (endogenous, mouse ESCs) (from UniProt P0C0S6 1-128) (natural protein)” showed a fold change of H2A.Z pulled down, against wild-type Tet3 of 2 fold.

The record behind these values is publication PMC7026633.
